From patent US20170183404A1

Target: Purified Mor1 (Example 9) (Mus musculus (Mouse)) (UniProt P42866)
Assay: cell-based or functional assay

Chain of Heterotrimeric Gi (P63096 2-354): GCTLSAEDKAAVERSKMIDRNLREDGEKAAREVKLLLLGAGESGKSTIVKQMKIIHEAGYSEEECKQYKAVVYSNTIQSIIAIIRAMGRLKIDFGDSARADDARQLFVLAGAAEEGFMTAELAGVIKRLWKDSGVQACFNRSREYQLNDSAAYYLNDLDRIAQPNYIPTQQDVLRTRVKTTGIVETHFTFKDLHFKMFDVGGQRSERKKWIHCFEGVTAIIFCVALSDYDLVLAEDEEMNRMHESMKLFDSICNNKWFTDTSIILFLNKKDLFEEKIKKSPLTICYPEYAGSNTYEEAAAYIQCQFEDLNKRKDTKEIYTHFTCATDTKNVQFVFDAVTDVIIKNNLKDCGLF
Chain of Heterotrimeric Gi (P62873 2-340): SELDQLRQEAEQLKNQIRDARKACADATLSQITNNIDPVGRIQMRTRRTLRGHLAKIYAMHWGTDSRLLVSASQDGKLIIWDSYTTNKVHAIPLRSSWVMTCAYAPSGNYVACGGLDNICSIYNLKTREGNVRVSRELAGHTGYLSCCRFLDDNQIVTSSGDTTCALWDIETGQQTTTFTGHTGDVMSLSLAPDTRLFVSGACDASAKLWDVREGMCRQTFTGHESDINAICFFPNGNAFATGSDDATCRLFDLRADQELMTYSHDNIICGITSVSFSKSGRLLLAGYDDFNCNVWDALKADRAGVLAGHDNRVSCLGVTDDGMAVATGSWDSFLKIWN

enhancement of agonist (BU72) affinity for Mor1 in HDL particles: 220 fold
Substance: Heterotrimeric Gi (from UniProt P63096 2-354; P62873 2-340)
